Results on one molecule are retold here after patent publication US20240245795A1, “PREPARATION METHOD AND APPLICATION OF ANTIBODY DRUG CONJUGATE” (priority 2021, published 2024).

The test system of this assay is Human lung squamous carcinoma cells NCI-H2170. The experiment in a line: In vivo anti-tumor experiment (5), NCI-H2170 xenograft. The conditions noted are these: 5 mg/kg i.v. single dose. More on the design: species or system female nude mice. How it is done: Human lung squamous carcinoma cells NCI-H2170 (ATCC) were suspended in physiological saline. 4×10^7 cells were subcutaneously transplanted into the right flank of female nude mice, which were randomized into groups on day 6. Taking the grouping day as day 0, Antibody Conjugate 13, DS-1062a (the positive control drug) and the hIgG-A-11 conjugate as a negative control group were administered intravenously to the tail at a dose of 5 mg/kg respectively on day 0.

B1: DS-1062a (conjugate, chains of the INN, looked up)
VH: QVQLVQSGAEVKKPGASVKVSCKASGYTFTTAGMQWVRQAPGQGLEWMGWINTHSGVPKYAEDFKGRVTISADTSTSTAYLQLSSLKSEDTAVYYCARSGFGSSYWYFDVWGQGTLVTVSS
VL: DIQMTQSPSSLSASVGDRVTITCKASQDVSTAVAWYQQKPGKAPKLLIYSASYRYTGVPSRFSGSGSGTDFTLTISSLQPEDFAVYYCQQHYITPLTFGQGTKLEIK
modifications: deruxtecan payload
Consider B1, for which the anti-tumor activity result is listed as “showed anti-tumor activity”.
